Source: publication PMC3575800 (Nucleic Acids Research, 2013)

T1: PH domain of the Tfb1 subunit of TFIIH (Tfb1PH; residues 1-115) (S. cerevisiae, UniProt P32776 1-115)
T1 sequence (looked up): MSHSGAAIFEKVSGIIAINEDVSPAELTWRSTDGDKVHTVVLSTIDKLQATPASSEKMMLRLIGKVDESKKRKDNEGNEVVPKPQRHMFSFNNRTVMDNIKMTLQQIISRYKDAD


Columns and labels:
[1] = target: T1, PH domain of the Tfb1 subunit of TFIIH …; assay: ITC
[2] = target: T1, PH domain of the Tfb1 subunit of TFIIH …; assay: NMR titration

Row | Binder | Kd [1] | stoichiometry N [1] | fold reduction of affinity against Rad4 76-115 [1] | binding result [2]
1 | TDDSVEEIQSSEEDYDSEEFEDVTDGNEVAGVEDISVEIK (domain or fragment, S. cerevisiae, UniProt P14736 76-115, looked up) [Rad4 residues 76-115 (acidic segment from the N-terminal region of Rad4)] | 50 nM | 1 | – | –
2 | TDDSVEEIQSSEEDYDSEEFEDPTDGNEVAGVEDISVEIK (domain or fragment, S. cerevisiae, UniProt P14736 76-115, looked up) [Rad4 residues 76-115, V98P mutant] | – | 1 | 24 fold | –
3 | TDDSVEEIQSSEEDYDSEEPEDVTDGNEVAGVEDISVEIK (domain or fragment, S. cerevisiae, UniProt P14736 76-115, looked up) [Rad4 residues 76-115, F95P mutant] | – | 1 | 50 fold | –
4 | RSEDEGCDSDECEWEEVELKPKNVK (peptide, UniProt P07276 359-383, looked up) [Rad2 residues 359-383 (acidic segment of the spacer region of Rad2)] | – | – | – | binds
5 | FYQDEEDDLSDIDWEEVSLDGSL (peptide, UniProt Q06665 41-63, looked up) [Rad34 residues 41-63] | 11 nM | 1 | – | –
6 | FYQDEEDDLSDIDSEEVSLDGSL (peptide, UniProt Q06665 41-63, looked up) [Rad34 residues 41-63, W54S mutant] | > 10000 nM | – | – | –
